In the nanobody polyreactivity screen of Harvey et al. (2022):

Experiment: yeast display, Sf9 membrane polyspecificity reagent, FACS + sequencing; frameworks hold sequencing errors
Summary of the method: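 Synthetic nanobody libraries on Saccharomyces cerevisiae BJ5465 were galactose-induced for 36–48 hours, stained 1 hour at 4 °C with 10% biotinylated, detergent-solubilized Sf9 membrane reagent and enriched on streptavidin microbeads. FACS then separated cells into low and high (top ~1%) gates by anti-HA (expression) and streptavidin (reagent binding) fluorescence. Genes were colony-PCR amplified, MiSeq 2 × 250 sequenced and CDR-length filtered. A clone's polyreactivity label is that of its gate of origin.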

Sequence | polyreactivity (PSR sort gate)
QVQLVESGGGLVQEGGSLRLSCAASGRIFRVYTMGWYRQAPGKERELVASITGRGGSTYYADSVKGRFTISRDNAKNTVYLQMNSLKPEDTAVYYCAAQTFRGFSEFDYWGQGTQVTLSS | high polyreactivity
QVQLVESGGGLVQAGGSLRLSCAASGSTILSYGMGWYRQAPGKERELVAGISRGGITYYADSVKGRFTISRDNAKNNVYLQMNSLKPEDTAVYYCNVGLYSYYYRSRPRDYEYWGQGTQVTVSS | high polyreactivity
QVQLVQSRRGLVQAGCSLRLSCAASGRTFVIYAMGWYRQAPGKERELVAAISKGGGSTYYADSVKGRFTISRDNAKNTVYLQMNSLKPEDTAVYYCAVEASRAGAWYEYWGQGTQVTVSS | high polyreactivity
QVQLVESGGGLVQAGGSLRLSCAASGNTFYPYAMGWYRQAPGKERELVAAITSSGGSTYYADSVNGRFTISRDNAKNTVYLQMNSLKPEDTAVYYCAAYIYFLGMDYWGQGTQVTVSS | low polyreactivity
QVQLVESGGGLVQAGGSLRLSCAASGRTLFYYTMGWYRQAPGKERELVAAITTGGRTYYADSVKGRFTISRDNAKNTVYLQMNSLKPEDTAVYYCAAHTYYYPVGFNYWGQGTQVTVSS | low polyreactivity
QVQLVESGGGLVQAGGSLRLSCAASGYIFGYYVMGWYRQAPGKERELVAAITGRGGSTYYADSVKGRFTISRDNAKNTVYLQMNSLKPEDTAVYYCAADATTYPYDPWHLYEIWEYYYWGQGTQVTVSS | low polyreactivity
QVQLVESGGGLVQAGGSLRLSCAASGRIFGDYAMGWYRQAPGKERELVADITWSGGSTYYADSVKGRFTISRDNAKNTVYLQMNSLKPEDTAVYYCNADVWFYYTFDYWGQGTQVTVSS | low polyreactivity
QVQLVESGGGLVHAGGSLRLSCAASGRTFYRYGMGWYREARGKERELVAAISNRGGTTYYADSLKGRFTISRDNAKNTVYLQMNSLKPEDTAVYYCAADSVYAEYDSWGQGTQVTVSS | low polyreactivity
QVQLVESGGGLVQAGGSLRLSCAASGSTFWGYAMGWYRQAPGKERELVATINQSAGSTYYADSVKGRFTISRDYAKNTVYLQMNSLKPEDTAVYYCAAEARVQFSYDYWGQGTQVTVSS | low polyreactivity
QVQLVESGGGLVQAGGSLRLSCAASGIIFDSNAMGWYRQAPGKERELVAAITRTATRTYYADSVKGRFTISRDQAQNTVYLQMNSLKPEDTAFYYCADRGSTPQPGVGYWGQGTQVTVSS | high polyreactivity
QVQLVESGGGLVQAGGSLRLSCAASGRIFPTYTMGWYRQAPGKERELVAGISYSGTSTSYADSVKGRFTISRDNAKNTVYLQMNSLKPEDTAVYYCAAKYYGRSFYYGYDYWGQGTQVTVSS | low polyreactivity
QVQLVESVGGLVQAGGSLRLSCAASGFNFPGYAMGWYRPAPGKERELVAAITGSGGRTYYADSVKGRFTISRDNAKNTVYLQMISLKPEDTAVYYCLARSYYNWYDYWGKGTQVTVSS | high polyreactivity
QVQLVESGGGLVQAGGSLRLSCAASGRIFRVNAMGWYRQAPGKERELVAAINFSGTSTYYADSVKGRFTISRDNAKNTVYLQMNSLKPEDTAVYYCNTASYVSWYVHYYYWGQGTQVTVSS | low polyreactivity
QVQHVESGGGIVQAGGSLRLSCAASGGIFGYYAMGWYRQAPGKEREFVATITRGGGSTYYADSVKGRFTISRDNAKNTVYLQMNSLKPEDSAVYYCNAKPSYYQRYIYWGQGTQVTVSS | high polyreactivity
QVHLVVSGGGLVQAGGSLRLMCAASGSTFKYYVMGWYRQAPGKERELVAAISGSGGSKYYADSVKGRFTISRDNAKNTVYLQMNSLIPEDTAVYYCAAGRLRGPGYYFTFDYWGQGTQVTVSS | high polyreactivity
QVQLQESGAGLLQAGGCLSCTASGTIFGQGDMGWYRQAPGKERELLATINDGASTYYADSVKGRFTISRDKAKNTVYLKKNSLKPDDTAVDYFAVFTDITNYFGYWGQATQVTVSS | low polyreactivity

Sequence | polyreactivity (PSR sort gate)
QVQLVESGGGLVQAGGSLRLSCAASGRIFGLYAMGWYRQAPGKARELVAAISTRGGSTRYADSVKGRFTISRDTAKNTVYLQMNSLKPEDTAVYYCAKQPKPPPVTGYDYWGQGTQVTVSS | high polyreactivity
QVQLEESGGGIVQAGGSLRLSCDASGRIFVQYAIGCYRQEPGKEMELVAAISGSGGRTYYADSVKGSFTISRDTAKNTVYLQMNSLKPEDTAVYYCAARYTTGLSFWKPYYYWGQGTQVTVSS | high polyreactivity
QVQLVESGGGLVQAGGSLRLSCAASGRIIRPYAMGWYRQAPGKERDFVATIRFTTGRTYYADSVKGRFTISRDNAKNTVYLQMNSLKPDDTAVYYCAADFAFVNYAKISYTTHDYWGQGTQVTVSS | high polyreactivity
QVQLVESVGGLVQAGVSLRLSGAASGNTFVPYAMGWSRQAPGKESELVAAISLRGGSTYYADSVKGRFTISRDNAKNTVYLQMNSLKPEDTAVYYCAARTFYRPGLAGGYWGQGTQVTVAS | high polyreactivity
QVQLVESWGGLVQAGGSLRLSCAASGLPSKLMLMVWYRQAPGKERELVAAISSSGGRTYYADSVKGRFTISRDNAKITVYLQMNSLKPEDTAVYYCAAYFPRTLFEFGYWGQGNQVTVSS | high polyreactivity
QVQLVESRGGLVQAGGSLRLSCAASGSTFFRYAMGWYRQAPGKERELVAAITDSDGSTYYADSVKGRFTISRDNAKNTVYLQMNSLKPEDTAVYYCAAAHPDGWTVYNPQGGAWYDYWGQGSQVTVSS | low polyreactivity
QVQLVESGGGLVQAGGSLRLSCAASGRIFRTYTMGWYRQAPGKERELVAAITSGSSTYYADSVKGRFTISRDNAKNTVYLQMHSLKPEDTAVYYCATEWSIGRHLYTYNYWGPGTQVTVSS | high polyreactivity
QVQLVESGGGLVQAGGSLRLSCAASGGTFWDYAMGWYRQAPGKERELVAAITYGTASTDYADSVKGRFTISRDNAKNTVYLQMNSLKPEDTAVYYCAARWNQYPYSYSTYDYWGQGTQVTVSS | low polyreactivity
QVQLVESGGGLVQAGGSLRLSCAASGRIFSRYAMGGYRQAPGTERELVAAINNGGSTYYADSVKGRFTISRDNAKNTVYLQMNSLKPEDTAVYYCAKLWWSNFKPVEYWGQGTQVTVSS | low polyreactivity
QVQHVESGGGLVQAGGSLRLSCAASGRIFTFYTMGWYRQAPGKERELVAAINSGGSTYYADSVKGRFTISRDNAKNTVYLQMNSLIQEDTAVYYCNARVYPLWFRRGYDYWGQGTQVTVSS | high polyreactivity
QVELVESGGGLVQAGRSLRLSCAASGRILVSYAMGWYRQAPGKERELVAGITSGGDSTYYADSVKGRFTISRDNAKNTVYLQMNSLKPEDTAVYYCDADRDSYRGRKNVRERYTYWGQGTQVTVSS | high polyreactivity
HVQLQESGGVLVQAGGSLRLSCAASGSIFQATYMGWYRQAPGKEREFVASITYGSITNYADSVKGRFTIGRDNAKDTLYLQMNSLKPEDTAVYYCADDRHYIPAFHYWGQGTQVTVSS | low polyreactivity
QVQLVESGGGLVQAGGSLRLSCAASGRTFVYYAMGWYRPAPGKERELVAAISSRGGSTYYADSVKGRFTISRDNAKNTVYLQMNSLKPEDTAVYYCAAVKGPERPTSPYDYWGQGTQVTVSS | high polyreactivity
QVQLVESGGGLVQAGGSLRLSCAASGFIFYYYTMVWYRQAPGKERELVAAIRTGGGTNYADSVKGRFTISRDNAKNTVYLQRNSLKPEDTAVYYCAKGRQGVSYLTGTYGGRDYWGQGTQVTVSS | low polyreactivity
QVQLVESGGGLVQAGGSLRLSCAASGITFYVYTMGWYRQAPGKERELVAAINGSGGSTNYADSVKGRFTISRDNAKNTVFLQMNSLKPEDTAVYYCAADWSLRLYDYWGQGTQVTVSS | low polyreactivity
